Laboratory results taken from patent US20220282283, “NOVEL CRISPR DNA TARGETING ENZYMES AND SYSTEMS” (ARBOR BIOTECHNOLOGIES, INC., published 2022).

What was measured:
[1] = target: T1, CLUST.143952 3300028591 effector (Ga0247611_10000032_233) (uncultured metagenome (sheep rumen)); test: PAM 5'-G-3'; 37 C, in vitro transcription/translation; ratio normalised to non-target guide (SEQ 93); conditions: tags: FDA assay, one-pot in vitro transcription/translation
T1 chain: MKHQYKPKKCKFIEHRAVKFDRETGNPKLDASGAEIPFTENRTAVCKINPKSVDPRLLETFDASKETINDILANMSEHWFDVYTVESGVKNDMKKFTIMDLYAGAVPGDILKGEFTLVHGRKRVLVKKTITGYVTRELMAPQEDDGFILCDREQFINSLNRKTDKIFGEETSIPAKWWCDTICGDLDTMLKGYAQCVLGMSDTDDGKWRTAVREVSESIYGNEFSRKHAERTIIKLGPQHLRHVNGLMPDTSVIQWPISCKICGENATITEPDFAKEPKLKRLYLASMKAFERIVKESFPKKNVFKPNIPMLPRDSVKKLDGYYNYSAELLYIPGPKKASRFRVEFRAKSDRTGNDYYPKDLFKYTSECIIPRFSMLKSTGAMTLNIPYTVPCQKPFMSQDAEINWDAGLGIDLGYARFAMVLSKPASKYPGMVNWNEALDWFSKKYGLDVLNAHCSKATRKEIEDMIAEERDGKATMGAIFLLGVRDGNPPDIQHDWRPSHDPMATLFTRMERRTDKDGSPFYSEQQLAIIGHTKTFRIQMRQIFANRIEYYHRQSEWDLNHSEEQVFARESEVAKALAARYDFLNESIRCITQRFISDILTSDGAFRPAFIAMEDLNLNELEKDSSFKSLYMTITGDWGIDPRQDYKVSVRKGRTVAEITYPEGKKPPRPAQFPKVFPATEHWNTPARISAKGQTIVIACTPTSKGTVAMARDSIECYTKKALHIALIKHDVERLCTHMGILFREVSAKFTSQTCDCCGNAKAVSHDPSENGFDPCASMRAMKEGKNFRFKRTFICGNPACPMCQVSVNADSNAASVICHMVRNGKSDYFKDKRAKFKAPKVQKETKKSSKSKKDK
From the text: (§1) In this assay, an active CRISPR system designed to target GFP binds and cleaves the double-stranded DNA region encoding GFP, resulting in depletion of GFP fluorescence. The FDA assay involves in vitro transcription and translation, allowing production of an RNP from a DNA template encoding a CLUST.143952 effector and a DNA template containing a pre-crRNA sequence under a T7 promoter with direct repeat (DR)-spacer-direct repeat (DR); the spacer targeted GFP. In the same one-pot reaction, GFP and RFP were also produced as both the target and the fluorescence reporter (FIG. 8A). The target GFP plasmid sequence is set forth in SEQ ID NO: 86, and the RFP plasmid sequence is set forth in SEQ ID NO: 87. GFP and RFP fluorescence values were measured every 20 min at 37° C. for 12 hr, using a TECAN Infinite F Plex plate reader. Since RFP was not targeted, its fluorescence was not affected and was therefore used as an internal signal control.
(§2) 2 GFP targets (plus 2 non-targets) were designed for the effector of SEQ ID NO: 1. RNA guide sequences (pre-crRNAs for Target 1 and Non-Target 2 and mature crRNAs for Target 3 and Non-Target 4), target sequences, and the non-target control sequences used for the FDA assay are listed in TABLE 9. […]
(§3) GFP signal was normalized to RFP signal, then the average fluorescence of three technical replicates was taken at each time point. […]

[2] = target: T1, CLUST.143952 3300028591 effector …; test: PAM 5'-G-3'; 37 C, in vitro transcription/translation; ratio normalised to non-target guide (SEQ 90); conditions: tags: FDA assay, one-pot in vitro transcription/translation
From the text: as §1, §2, §3

Binder	activity [1] [GFP depletion ratio]	activity [2] [GFP depletion ratio]
mature crRNA Target 3 ; GFP Target 3 (ssRNA ; dsDNA) RNA: UAUGGUAGAGGUGCCACCGGUUUACAUGGCGCCGAUACCAAGGUAUGAAAUUUAUCAUUAAAG DNA 1: AAGGTATGAAATTTATCATTAAAG DNA 2: CTTTAATGATAAATTTCATACCTT	> 1	
pre-crRNA Target 1 (DR-spacer-DR) ; GFP Target 1 (ssRNA ; dsDNA) RNA: UAUGGUAGAGGUGCCACCGGUUUACAUGGCGCCGAUACCAAGGUAUGAAAUUUAUCAUUAAAGGCGUAUGGUAGAGGUGCCACCGGUUUACAUGGCGCCGAUACCUAACCCCUCUCUAAACGGAGGGGUUU DNA 1: AAGGTATGAAATTTATCATTAAAGGCG DNA 2: CGCCTTTAATGATAAATTTCATACCTT		> 1
